# In publication PMC7502484:
# Target: human PTH1R in transiently transfected COS-7 cell membranes (human) (UniProt Q03431)
# Experiment: radioligand binding
# Sequence of UniProt Q03431 (Q03431 27-593): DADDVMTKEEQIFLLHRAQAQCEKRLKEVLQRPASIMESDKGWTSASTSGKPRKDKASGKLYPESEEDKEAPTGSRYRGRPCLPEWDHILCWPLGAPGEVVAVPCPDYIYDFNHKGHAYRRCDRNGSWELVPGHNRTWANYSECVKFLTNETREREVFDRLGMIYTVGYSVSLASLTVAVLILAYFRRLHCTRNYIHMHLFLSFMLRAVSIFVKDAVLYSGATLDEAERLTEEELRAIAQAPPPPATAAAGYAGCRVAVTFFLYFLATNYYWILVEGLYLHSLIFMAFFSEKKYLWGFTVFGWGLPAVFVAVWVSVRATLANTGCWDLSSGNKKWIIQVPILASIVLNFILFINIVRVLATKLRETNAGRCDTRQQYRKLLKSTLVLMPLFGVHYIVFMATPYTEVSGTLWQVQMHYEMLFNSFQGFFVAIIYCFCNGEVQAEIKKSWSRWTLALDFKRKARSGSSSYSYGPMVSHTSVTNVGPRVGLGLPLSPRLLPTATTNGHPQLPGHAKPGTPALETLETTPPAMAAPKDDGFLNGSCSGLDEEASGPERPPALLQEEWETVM
substance,measurement,value
PTH(1–34)^H9A (peptide),IC50,13.7 nM
